Broadly, the Km is the concentration of substrate that gives half-maximal velocity. In general, Vmax refers to the rate approached at saturating substrate. The kcat is the number of substrate molecules converted per active site and unit of time at saturation. In general, kcat/Km refers to the turnover number divided by the Michaelis constant.

One data set concerns CC(=O)Cc1ccccc1. As to the kind of experiment: purified protein. In kind it is biochemical, Dietzia sp. D5. As to conditions: co-substrate NADPH (60 μM in the standard assay), 50 mM sodium phosphate pH 7.5, 10 mM KCl, 25 °C.
The target in a further data set is T1, BVMO4 (Dietzia sp. D5, UniProt U5S003, P2A).
T1 construct: full length, 612 residues; His-tagged in pET-22b(+) (NcoI/NotI); E. coli BL21-CodonPlus(DE3)-RP; Ni-NTA; about 75 kDa on SDS-PAGE, predicted 72 kDa; FAD added after purification
The experiment in a line: activity recovery of purified enzyme on FAD addition. In kind it is biochemical. As to conditions: FAD added to 10 μM after Ni-NTA purification; phenylacetone as substrate; pH 7.5.

Substrate in data set [1]: NC(=O)C1=CN([C@@H]2O[C@H](COP(=O)(O)OP(=O)(O)OC[C@H]3O[C@@H](n4cnc5c(N)ncnc54)[C@H](OP(=O)(O)O)[C@@H]3O)[C@@H](O)[C@H]2O)C=CC1
As to the kind of experiment: purified protein. Type of data set: biochemical, Dietzia sp. D5. As to conditions: NADPH varied, fixed ketone substrate not stated, 50 mM sodium phosphate pH 7.5, 10 mM KCl, 25 °C, varied: cofactor.

Substrate in data set [2]: CC1CCCCC1=O
The experiment in a line: purified protein. As to conditions: co-substrate NADPH (60 μM in the standard assay), 50 mM sodium phosphate pH 7.5, 10 mM KCl, 25 °C. Type of data set: biochemical, Dietzia sp. D5.

As for BVMO4 (Dietzia sp. D5; P2A), in the data set with CC(=O)Cc1ccccc1, the Km was found to be 829 ± 163 µM, the Vmax turned out to be 4.74 µM/min, the kcat is 0.634 ± 0.104 s⁻¹ and the kcat/Km came to 770 ± 30 M⁻¹ s⁻¹.

Take `Cc1cc2nc3c(=O)[nH]c(=O)nc-3n(C[C@H](O)[C@H](O)[C@H](O)COP(=O)(O)OP(=O)(O)OC[C@H]3O[C@@H](n4cnc5c(N)ncnc54)[C@H](O)[C@@H]3O)c2cc1C` [FAD]: the “activity recovery of purified enzyme on FAD addition” value at BVMO4 is listed as “The enzyme lost its activity during the purification process but was recovered upon addition of FAD”.

B1: BVMO4 (Dietzia sp. D5; P2A) (protein)
chain: MAFTLPESKIAIDIDFDPDHLRQRFEADKQARERKDQLAQFQGLDDVLEVDDSDPFSEPITREPVTEELDALVLGGGFGGLTAGAYLTQNGVENFRLVEYGGDFGGTWYWNRYPGVQCDIESHIYMPLLEETGYVPSQRYADGSEIFEHAQRIGRHYGLYDRTYFQTRATHARWDEQIQRWEVTTDRGDRFVTRVLLRSNGALTKPQLPKVPGIGDFEGKIFHTSRWDYGYTGGSAAGDLAHLRDKRVAVVGTGATGVQVVPYLAQDAKELVVVQRTPSVVQPRNNRKTDPEWVASLTPGWQYERHDNFNGIISGHEVEGNLVDDGWTHLFPELTGQHLVDVPVGELPEGDQALVAELADMNLLMSAHARVDSIVTDPATADGLKPWFGYMCKRPCFNDEYLEAFNRPNVTLAASPAGIDGITSSGIVVAGTHYEVDCIIFATGFETGSGPAGIYGYDVIGREGHSMQEYFSEGARTFHGFFTHGFPNFVELGMSQTAYYVNFVYMLDRKARHAARLVRHLLDSGIGTFEPTAEAEADWVAEVRRSNEPREAYWGACTPGYYNGQGEVSKAVFRDVYNSSEIDFWNMIEAWWNSGRFEGLVFEPARDAVPVA
notes: full length, 612 residues; His-tagged in pET-22b(+) (NcoI/NotI); E. coli BL21-CodonPlus(DE3)-RP; Ni-NTA; about 75 kDa on SDS-PAGE, predicted 72 kDa; FAD added after purification
For B1, in the data set “purified protein [1]”, the Km came out at 11 ± 2 µM, the Vmax was 4.2 µM/min, the kcat is 0.507 ± 0.057 s⁻¹ and the kcat/Km was determined as 45100 ± 1520 M⁻¹ s⁻¹. In “purified protein [2]”, the Km is 507 ± 142 µM, the Vmax was determined as 3.07 µM/min, the kcat was 0.37 ± 0.095 s⁻¹ and the kcat/Km is 730 ± 20 M⁻¹ s⁻¹.
